In PMC11791078, “RECQ4-MUS81 interaction contributes to telomere maintenance with implications to Rothmund-Thomson syndrome” (Nature Communications, 2025):

T1: GST-MUS81-EME1 complex (UniProt Q96NY9 1-551; Q96AY2 1-570)
T1 construct: MUS81 subunit of the complex encoded by pGEX-6P-1-MUS81-HisEME1; EME1 subunit of the complex encoded by pGEX-6P-1-MUS81-HisEME1; Plasmid was a gift from Dr. Stephen West and Dr. Curtis Harris; the construct is not described further; source: E. coli Rossetta (DE3) pLysS, purified (Glutathione Sepharose, Heparin, MonoS)
T1 sequence (looked up) 1: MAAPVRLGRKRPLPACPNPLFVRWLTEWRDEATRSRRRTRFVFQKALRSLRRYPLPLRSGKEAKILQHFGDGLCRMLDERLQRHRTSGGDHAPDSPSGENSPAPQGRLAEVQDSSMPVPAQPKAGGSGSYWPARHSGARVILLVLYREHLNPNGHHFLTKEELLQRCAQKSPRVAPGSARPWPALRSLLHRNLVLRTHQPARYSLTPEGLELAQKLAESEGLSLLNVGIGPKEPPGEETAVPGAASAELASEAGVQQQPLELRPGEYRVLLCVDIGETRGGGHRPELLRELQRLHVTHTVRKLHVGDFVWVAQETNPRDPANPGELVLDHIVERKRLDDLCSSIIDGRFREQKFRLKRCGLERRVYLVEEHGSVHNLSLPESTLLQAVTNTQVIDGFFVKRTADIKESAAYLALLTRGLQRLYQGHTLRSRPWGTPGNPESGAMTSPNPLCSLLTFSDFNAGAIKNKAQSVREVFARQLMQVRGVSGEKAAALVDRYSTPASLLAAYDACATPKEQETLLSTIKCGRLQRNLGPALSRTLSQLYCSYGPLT
T1 sequence (looked up) 2: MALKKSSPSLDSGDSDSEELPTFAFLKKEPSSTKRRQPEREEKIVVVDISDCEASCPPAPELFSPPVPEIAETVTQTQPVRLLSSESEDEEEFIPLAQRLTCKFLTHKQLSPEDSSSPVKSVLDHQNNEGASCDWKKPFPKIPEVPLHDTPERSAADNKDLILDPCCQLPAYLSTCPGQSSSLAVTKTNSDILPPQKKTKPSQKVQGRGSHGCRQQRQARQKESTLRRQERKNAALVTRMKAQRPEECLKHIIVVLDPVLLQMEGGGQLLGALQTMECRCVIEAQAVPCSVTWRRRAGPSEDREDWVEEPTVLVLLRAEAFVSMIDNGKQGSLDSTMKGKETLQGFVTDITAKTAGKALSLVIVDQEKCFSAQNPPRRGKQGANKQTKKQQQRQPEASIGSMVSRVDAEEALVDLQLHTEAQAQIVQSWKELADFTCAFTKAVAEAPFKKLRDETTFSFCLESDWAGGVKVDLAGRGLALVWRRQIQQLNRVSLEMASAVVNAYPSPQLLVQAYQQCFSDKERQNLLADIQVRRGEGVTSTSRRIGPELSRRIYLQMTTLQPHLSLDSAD

B1: MBP-RECQ4 (1-400) (domain or fragment, UniProt O94761 1-400, looked up)
chain: MERLRDVRERLQAWERAFRRQRGRRPSQDDVEAAPEETRALYREYRTLKRTTGQAGGGLRSSESLPAAAEEAPEPRCWGPHLNRAATKSPQSTPGRSRQGSVPDYGQRLKANLKGTLQAGPALGRRPWPLGRASSKASTPKPPGTGPVPSFAEKVSDEPPQLPEPQPRPGRLQHLQASLSQRLGSLDPGWLQRCHSEVPDFLGAPKACRPDLGSEESQLLIPGESAVLGPGAGSQGPEASAFQEVSIRVGSPQPSSSGGEKRRWNEEPWESPAQVQQESSQAGPPSEGAGAVAVEEDPPGEPVQAQPPQPCSSPSNPRYHGLSPSSQARAGKAEGTAPLHIFPRLARHDRGNYVRLNMKQKHYVRGRALRSRLLRKQAWKQKWRKKGECFGGGGATVTTK
notes: RECQ4 residues 1-400; cloned into pMAL-c2x from pET32a-RECQ4-9XHis; also called fragment (1-400); RECQ4 truncation (1-400 aa); source: E. coli BL21(DE3) pLysS, purified (His-Select nickel, amylose, MonoS)
B2: MBP-RECQ4 (1-492) (domain or fragment, UniProt O94761 1-492, looked up)
chain: MERLRDVRERLQAWERAFRRQRGRRPSQDDVEAAPEETRALYREYRTLKRTTGQAGGGLRSSESLPAAAEEAPEPRCWGPHLNRAATKSPQSTPGRSRQGSVPDYGQRLKANLKGTLQAGPALGRRPWPLGRASSKASTPKPPGTGPVPSFAEKVSDEPPQLPEPQPRPGRLQHLQASLSQRLGSLDPGWLQRCHSEVPDFLGAPKACRPDLGSEESQLLIPGESAVLGPGAGSQGPEASAFQEVSIRVGSPQPSSSGGEKRRWNEEPWESPAQVQQESSQAGPPSEGAGAVAVEEDPPGEPVQAQPPQPCSSPSNPRYHGLSPSSQARAGKAEGTAPLHIFPRLARHDRGNYVRLNMKQKHYVRGRALRSRLLRKQAWKQKWRKKGECFGGGGATVTTKESCFLNEQFDHWAAQCPRPASEEDTDAVGPEPLVPSPQPVPEVPSLDPTVLPLYSLGPSGQLAETPAEVFQALEQLGHQAFRPGQERAVMRI
notes: cloned into pMAL-c2x from pET32a-RECQ4-9XHis; source: E. coli BL21(DE3) pLysS, purified (His-Select nickel, amylose)
B3: RECQ4 (WT), full-length (natural protein)
chain: MERLRDVRERLQAWERAFRRQRGRRPSQDDVEAAPEETRALYREYRTLKRTTGQAGGGLRSSESLPAAAEEAPEPRCWGPHLNRAATKSPQSTPGRSRQGSVPDYGQRLKANLKGTLQAGPALGRRPWPLGRASSKASTPKPPGTGPVPSFAEKVSDEPPQLPEPQPRPGRLQHLQASLSQRLGSLDPGWLQRCHSEVPDFLGAPKACRPDLGSEESQLLIPGESAVLGPGAGSQGPEASAFQEVSIRVGSPQPSSSGGEKRRWNEEPWESPAQVQQESSQAGPPSEGAGAVAVEEDPPGEPVQAQPPQPCSSPSNPRYHGLSPSSQARAGKAEGTAPLHIFPRLARHDRGNYVRLNMKQKHYVRGRALRSRLLRKQAWKQKWRKKGECFGGGGATVTTKESCFLNEQFDHWAAQCPRPASEEDTDAVGPEPLVPSPQPVPEVPSLDPTVLPLYSLGPSGQLAETPAEVFQALEQLGHQAFRPGQERAVMRILSGISTLLVLPTGAGKSLCYQLPALLYSRRSPCLTLVVSPLLSLMDDQVSGLPPCLKAACIHSGMTRKQRESVLQKIRAAQVHVLMLTPEALVGAGGLPPAAQLPPVAFACIDEAHCLSQWSHNFRPCYLRVCKVLRERMGVHCFLGLTATATRRTASDVAQHLAVAEEPDLHGPAPVPTNLHLSVSMDRDTDQALLTLLQGKRFQNLDSIIIYCNRREDTERIAALLRTCLHAAWVPGSGGRAPKTTAEAYHAGMCSRERRRVQRAFMQGQLRVVVATVAFGMGLDRPDVRAVLHLGLPPSFESYVQAVGRAGRDGQPAHCHLFLQPQGEDLRELRRHVHADSTDFLAVKRLVQRVFPACTCTCTRPPSEQEGAVGGERPVPKYPPQEAEQLSHQAAPGPRRVCMGHERALPIQLTVQALDMPEEAIETLLCYLELHPHHWLELLATTYTHCRLNCPGGPAQLQALAHRCPPLAVCLAQQLPEDPGQGSSSVEFDMVKLVDSMGWELASVRRALCQLQWDHEPRTGVRRGTGVLVEFSELAFHLRSPGDLTAEEKDQICDFLYGRVQARERQALARLRRTFQAFHSVAFPSCGPCLEQQDEERSTRLKDLLGRYFEEEEGQEPGGMEDAQGPEPGQARLQDWEDQVRCDIRQFLSLRPEEKFSSRAVARIFHGIGSPCYPAQVYGQDRRFWRKYLHLSFHALVGLATEELLQVAR

What was measured:
GST-MUS81-EME1 complex [1] = biological target: T1, GST-MUS81-EME1 complex; assay: pull-down; purified GST-MUS81-EME1, GST-MUS81 or GST-MUS81 fragments (5 µg) incubated with MBP-tagged RECQ4 fragments (5 µg) and Glutathione Sepharose 4 Fast Flow beads in 1X K buffer with 150 mM KCl, 0.01% NP40, 1 mM DTT, 30 min, 4 °C; flow-through and bound fractions on SDS-PAGE, Coomassie blue; conditions: both partners purified
GST-MUS81-EME1 complex [2] = biological target: GST-MUS81-EME1 complex (UniProt Q96NY9)

Binder | binding result (GST-MUS81-EME1 complex [1]) | stimulation of MUS81-EME1 (0.5 nM) cleavage of 3'-flap DNA (6 nM), 20 min at 37 °C; RECQ4 5, 25 and 50 nM (GST-MUS81-EME1 complex [2])
B1 | binds | 
B2 | binds | 
B3 |  | > 10 fold
